Blank lines part the entries; values can stand above or below the substance they belong to.
Assays:
tri27_human TRIM27 = tri27_human TRIM27 (UniProt P14373)
cytm1_human CYSTM1 = cytm1_human CYSTM1 (UniProt Q9H1C7)
mdfi_human MDFI = mdfi_human MDFI (UniProt Q99750)
ctds1_human CTDSP1 = ctds1_human CTDSP1 (UniProt Q9GZU7)
prr34_human PRR34 = prr34_human PRR34 (UniProt Q9NV39)
arrd3_human ARRDC3 = arrd3_human ARRDC3 (UniProt Q96B67)
hspb7_human HSPB7 = hspb7_human HSPB7 (UniProt Q9UBY9)
pihd2_human PIH1D2 = pihd2_human PIH1D2 (UniProt Q8WWB5)
Chain of pihd2_human PIH1D2 (Q8WWB5 whole entry): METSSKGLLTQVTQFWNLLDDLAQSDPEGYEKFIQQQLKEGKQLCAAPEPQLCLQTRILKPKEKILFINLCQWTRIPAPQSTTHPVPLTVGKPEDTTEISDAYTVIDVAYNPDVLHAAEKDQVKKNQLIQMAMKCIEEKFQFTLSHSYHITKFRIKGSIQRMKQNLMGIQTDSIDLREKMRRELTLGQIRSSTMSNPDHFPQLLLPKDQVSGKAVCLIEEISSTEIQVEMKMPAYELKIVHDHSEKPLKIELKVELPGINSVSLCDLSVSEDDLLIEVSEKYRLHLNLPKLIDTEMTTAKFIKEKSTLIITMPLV

egr4_human EGR4 = egr4_human EGR4 (UniProt Q05215)
Chain of egr4_human EGR4 (Q05215 whole entry): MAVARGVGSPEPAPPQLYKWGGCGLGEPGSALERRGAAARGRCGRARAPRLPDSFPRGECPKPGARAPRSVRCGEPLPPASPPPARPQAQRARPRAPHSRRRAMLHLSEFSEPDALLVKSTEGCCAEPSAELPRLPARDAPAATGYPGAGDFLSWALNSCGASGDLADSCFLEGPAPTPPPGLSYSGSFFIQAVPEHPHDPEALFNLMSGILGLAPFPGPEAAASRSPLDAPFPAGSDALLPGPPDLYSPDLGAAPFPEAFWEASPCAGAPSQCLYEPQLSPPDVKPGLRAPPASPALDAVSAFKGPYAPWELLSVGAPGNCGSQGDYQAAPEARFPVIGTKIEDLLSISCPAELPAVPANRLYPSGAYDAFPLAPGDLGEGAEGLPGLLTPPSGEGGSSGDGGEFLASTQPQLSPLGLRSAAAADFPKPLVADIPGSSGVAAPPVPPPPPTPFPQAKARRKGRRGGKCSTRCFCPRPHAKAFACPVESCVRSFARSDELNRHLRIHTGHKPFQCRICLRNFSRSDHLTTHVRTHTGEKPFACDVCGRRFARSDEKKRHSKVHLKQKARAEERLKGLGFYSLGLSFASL

pa2gx_human PLA2G10 = pa2gx_human PLA2G10 (UniProt O15496)
Chain of pa2gx_human PLA2G10 (O15496 whole entry): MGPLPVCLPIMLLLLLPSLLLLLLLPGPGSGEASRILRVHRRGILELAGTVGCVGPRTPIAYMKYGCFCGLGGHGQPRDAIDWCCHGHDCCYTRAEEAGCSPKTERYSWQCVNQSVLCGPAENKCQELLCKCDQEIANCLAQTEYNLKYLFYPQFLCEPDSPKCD

wbp2_human WBP2 = wbp2_human WBP2 (UniProt Q969T9)
Chain of wbp2_human WBP2 (Q969T9 whole entry): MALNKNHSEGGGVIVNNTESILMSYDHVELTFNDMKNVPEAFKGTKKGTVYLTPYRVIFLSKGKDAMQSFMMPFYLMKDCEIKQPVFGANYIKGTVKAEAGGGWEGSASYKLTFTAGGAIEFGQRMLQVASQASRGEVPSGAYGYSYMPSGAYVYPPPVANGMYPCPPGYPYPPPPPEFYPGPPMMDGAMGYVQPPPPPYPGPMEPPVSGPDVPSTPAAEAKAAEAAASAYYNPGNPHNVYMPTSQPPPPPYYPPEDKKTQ

dazp2_human DAZAP2 = dazp2_human DAZAP2 (UniProt Q15038)
pdli7_human PDLIM7 = pdli7_human PDLIM7 (UniProt Q9NR12)
tm174_human TMEM174 = tm174_human TMEM174 (UniProt Q8WUU8)
leng8_human LENG8 = leng8_human LENG8 (UniProt Q96PV6)
hspb8_human HSPB8 = hspb8_human HSPB8 (UniProt Q9UJY1)
dtx3_human DTX3 = dtx3_human DTX3 (UniProt Q8N9I9)
Chain of dtx3_human DTX3 (Q8N9I9 whole entry): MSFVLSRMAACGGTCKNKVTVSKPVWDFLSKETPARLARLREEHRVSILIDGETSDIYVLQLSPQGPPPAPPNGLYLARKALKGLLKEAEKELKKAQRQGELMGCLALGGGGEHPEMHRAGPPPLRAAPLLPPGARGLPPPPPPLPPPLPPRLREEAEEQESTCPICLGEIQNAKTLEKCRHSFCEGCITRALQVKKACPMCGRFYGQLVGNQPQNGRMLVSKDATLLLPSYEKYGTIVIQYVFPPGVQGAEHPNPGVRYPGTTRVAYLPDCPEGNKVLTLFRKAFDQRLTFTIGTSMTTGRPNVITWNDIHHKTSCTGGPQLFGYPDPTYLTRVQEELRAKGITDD

trib3_human TRIB3 = trib3_human TRIB3 (UniProt Q96RU7)
noto_human NOTO = noto_human NOTO (UniProt A8MTQ0)
Chain of noto_human NOTO (A8MTQ0 whole entry): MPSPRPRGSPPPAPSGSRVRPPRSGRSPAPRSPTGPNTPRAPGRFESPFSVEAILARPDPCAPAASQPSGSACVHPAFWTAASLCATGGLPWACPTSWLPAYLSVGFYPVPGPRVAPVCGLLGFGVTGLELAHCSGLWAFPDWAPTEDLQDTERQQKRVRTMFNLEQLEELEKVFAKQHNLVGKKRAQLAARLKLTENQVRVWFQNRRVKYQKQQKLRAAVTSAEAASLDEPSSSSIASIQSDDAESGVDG

vp37b_human VPS37B = vp37b_human VPS37B (UniProt Q9H9H4)
Chain of vp37b_human VPS37B (Q9H9H4 whole entry): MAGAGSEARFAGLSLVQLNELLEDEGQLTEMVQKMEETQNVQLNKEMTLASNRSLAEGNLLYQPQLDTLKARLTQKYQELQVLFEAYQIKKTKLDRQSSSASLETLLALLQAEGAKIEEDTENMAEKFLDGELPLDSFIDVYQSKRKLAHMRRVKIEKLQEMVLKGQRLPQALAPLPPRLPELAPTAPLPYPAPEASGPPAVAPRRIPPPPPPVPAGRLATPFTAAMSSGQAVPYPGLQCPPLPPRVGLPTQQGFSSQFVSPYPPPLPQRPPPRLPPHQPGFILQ

magd1_human MAGED1 = magd1_human MAGED1 (UniProt Q9Y5V3)
Chain of magd1_human MAGED1 (Q9Y5V3 whole entry): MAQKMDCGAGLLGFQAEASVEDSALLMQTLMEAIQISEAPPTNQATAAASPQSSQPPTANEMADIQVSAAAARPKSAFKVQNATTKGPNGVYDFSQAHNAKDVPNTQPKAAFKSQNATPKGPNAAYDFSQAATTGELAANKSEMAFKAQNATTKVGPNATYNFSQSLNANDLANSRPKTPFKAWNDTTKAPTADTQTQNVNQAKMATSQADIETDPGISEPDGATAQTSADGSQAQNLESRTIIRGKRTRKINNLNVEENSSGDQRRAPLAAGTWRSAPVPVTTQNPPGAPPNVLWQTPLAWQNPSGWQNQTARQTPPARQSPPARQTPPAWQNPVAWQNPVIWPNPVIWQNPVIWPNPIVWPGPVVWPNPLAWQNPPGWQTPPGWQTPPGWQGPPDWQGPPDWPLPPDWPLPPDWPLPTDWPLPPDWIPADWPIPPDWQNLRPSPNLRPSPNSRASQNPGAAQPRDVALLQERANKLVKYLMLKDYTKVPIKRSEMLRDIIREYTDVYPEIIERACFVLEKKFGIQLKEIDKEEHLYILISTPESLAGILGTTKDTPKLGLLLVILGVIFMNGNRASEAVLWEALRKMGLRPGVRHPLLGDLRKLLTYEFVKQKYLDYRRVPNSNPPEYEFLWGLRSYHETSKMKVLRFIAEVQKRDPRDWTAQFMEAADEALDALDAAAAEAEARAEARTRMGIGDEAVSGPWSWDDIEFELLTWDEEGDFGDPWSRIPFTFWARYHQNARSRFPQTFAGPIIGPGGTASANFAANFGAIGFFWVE

fx4l1_human FOXD4L1 = fx4l1_human FOXD4L1 (UniProt Q9NU39)
Chain of fx4l1_human FOXD4L1 (Q9NU39 whole entry): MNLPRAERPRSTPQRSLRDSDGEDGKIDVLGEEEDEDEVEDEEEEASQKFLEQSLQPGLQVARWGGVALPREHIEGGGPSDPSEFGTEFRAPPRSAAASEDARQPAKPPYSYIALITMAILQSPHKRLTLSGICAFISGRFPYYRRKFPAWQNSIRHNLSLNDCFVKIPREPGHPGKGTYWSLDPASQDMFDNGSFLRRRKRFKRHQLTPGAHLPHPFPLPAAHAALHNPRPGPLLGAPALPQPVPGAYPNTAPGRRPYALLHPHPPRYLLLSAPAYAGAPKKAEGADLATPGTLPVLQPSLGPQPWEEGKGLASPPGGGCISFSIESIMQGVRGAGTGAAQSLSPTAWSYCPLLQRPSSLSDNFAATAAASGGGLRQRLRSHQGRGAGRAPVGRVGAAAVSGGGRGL

ptn21_human PTPN21 = ptn21_human PTPN21 (UniProt Q16825)
prdm6_human PRDM6 = prdm6_human PRDM6 (UniProt Q9NQX0)
rm38_human MRPL38 = rm38_human MRPL38 (UniProt Q96DV4)
xrcc4_human XRCC4 = xrcc4_human XRCC4 (UniProt Q13426)
tbcd1_human TBC1D1 = tbcd1_human TBC1D1 (UniProt Q86TI0)
snx2_human SNX2 = snx2_human SNX2 (UniProt O60749)
rprm_human RPRM = rprm_human RPRM (UniProt Q9NS64)
tri37_human TRIM37 = tri37_human TRIM37 (UniProt O94972)
syph_human SYP = syph_human SYP (UniProt P08247)
ppip1_human PSTPIP1 = ppip1_human PSTPIP1 (UniProt O43586)
thap1_human THAP1 = thap1_human THAP1 (UniProt Q9NVV9)
cntrb_human CNTROB = cntrb_human CNTROB (UniProt Q8N137)
car10_human CARD10 = car10_human CARD10 (UniProt Q9BWT7)
tnip1_human TNIP1 = tnip1_human TNIP1 (UniProt Q15025)
msd4_human MSANTD4 = msd4_human MSANTD4 (UniProt Q8NCY6)
mgst2_human MGST2 = mgst2_human MGST2 (UniProt Q99735)
flowr_human CACFD1 = flowr_human CACFD1 (UniProt Q9UGQ2)
CCDC43 = CCDC43 (UniProt Q86WV7)
kank2_human KANK2 = kank2_human KANK2 (UniProt Q63ZY3)
fads6_human FADS6 = fads6_human FADS6 (UniProt Q8N9I5)
zbt14_human ZBTB14 = zbt14_human ZBTB14 (UniProt O43829)
pnma5_human PNMA5 = pnma5_human PNMA5 (UniProt Q96PV4)
zn639_human ZNF639 = zn639_human ZNF639 (UniProt Q9UID6)
sng3_human SYNGR3 = sng3_human SYNGR3 (UniProt O43761)
crcm_human MCC = crcm_human MCC (UniProt P23508)
klh12_human KLHL12 = klh12_human KLHL12 (UniProt Q53G59)
pick1_human PICK1 = pick1_human PICK1 (UniProt Q9NRD5)
coha1_human COL17A1 = coha1_human COL17A1 (UniProt Q9UMD9)
sft2a_human SFT2D1 = sft2a_human SFT2D1 (UniProt Q8WV19)
sp4_human SP4 = sp4_human SP4 (UniProt Q02446)
trbp2_human TARBP2 = trbp2_human TARBP2 (UniProt Q15633)

Chain of ctds1_human CTDSP1 (Q9GZU7 whole entry): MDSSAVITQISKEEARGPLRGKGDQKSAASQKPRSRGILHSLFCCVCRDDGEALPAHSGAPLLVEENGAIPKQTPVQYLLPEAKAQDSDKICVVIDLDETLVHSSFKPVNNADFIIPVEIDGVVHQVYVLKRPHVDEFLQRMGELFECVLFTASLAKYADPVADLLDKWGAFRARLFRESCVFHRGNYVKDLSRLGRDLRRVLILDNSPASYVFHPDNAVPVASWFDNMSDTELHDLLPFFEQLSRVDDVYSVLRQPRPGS
Chain of hspb7_human HSPB7 (Q9UBY9 whole entry): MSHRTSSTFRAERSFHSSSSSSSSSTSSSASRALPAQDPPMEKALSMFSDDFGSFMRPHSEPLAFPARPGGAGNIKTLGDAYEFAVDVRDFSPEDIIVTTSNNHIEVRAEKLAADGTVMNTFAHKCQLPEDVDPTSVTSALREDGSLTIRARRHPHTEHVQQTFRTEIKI
Chain of SIAH1, Q8IUQ4-2 (Q8IUQ4 other isoform, or with tags, fused parts or gaps): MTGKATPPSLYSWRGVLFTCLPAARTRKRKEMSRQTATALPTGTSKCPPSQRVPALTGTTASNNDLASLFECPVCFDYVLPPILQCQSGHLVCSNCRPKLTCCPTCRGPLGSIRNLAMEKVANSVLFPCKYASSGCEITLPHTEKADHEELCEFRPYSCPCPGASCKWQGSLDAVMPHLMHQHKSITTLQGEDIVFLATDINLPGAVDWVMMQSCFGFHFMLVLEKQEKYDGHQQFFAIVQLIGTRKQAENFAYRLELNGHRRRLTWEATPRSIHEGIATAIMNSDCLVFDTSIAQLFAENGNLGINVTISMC
Chain of prr34_human PRR34 (Q9NV39 whole entry): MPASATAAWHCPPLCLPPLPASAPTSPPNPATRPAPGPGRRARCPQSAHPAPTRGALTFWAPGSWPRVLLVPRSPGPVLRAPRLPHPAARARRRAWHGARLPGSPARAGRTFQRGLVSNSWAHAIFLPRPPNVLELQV

effect of a mutation on the interaction (tri27_human TRIM27): with no effect
effect of a mutation on the interaction (cytm1_human CYSTM1): with no effect
effect of a mutation on the interaction (mdfi_human MDFI): with no effect
effect of a mutation on the interaction (ctds1_human CTDSP1): with no effect
effect of a mutation on the interaction (prr34_human PRR34): with no effect
effect of a mutation on the interaction (arrd3_human ARRDC3): with no effect
effect of a mutation on the interaction (GLIS3, Q8NEA6-2): with no effect
effect of a mutation on the interaction (hspb7_human HSPB7): with no effect
effect of a mutation on the interaction (pihd2_human PIH1D2): with no effect
effect of a mutation on the interaction (egr4_human EGR4): with no effect
effect of a mutation on the interaction (pa2gx_human PLA2G10): with no effect
effect of a mutation on the interaction (wbp2_human WBP2): with no effect
effect of a mutation on the interaction (dazp2_human DAZAP2): with no effect
effect of a mutation on the interaction (pdli7_human PDLIM7): with no effect
effect of a mutation on the interaction (tm174_human TMEM174): with no effect
effect of a mutation on the interaction (leng8_human LENG8): with no effect
effect of a mutation on the interaction (hspb8_human HSPB8): with no effect
effect of a mutation on the interaction (dtx3_human DTX3): with no effect
effect of a mutation on the interaction (trib3_human TRIB3): with no effect
effect of a mutation on the interaction (SIAH1, Q8IUQ4-2): with no effect
effect of a mutation on the interaction (noto_human NOTO): with no effect
effect of a mutation on the interaction (EYA2, O00167-2): with no effect
effect of a mutation on the interaction (vp37b_human VPS37B): with no effect
effect of a mutation on the interaction (NR1H3, Q13133-3): with no effect
effect of a mutation on the interaction (magd1_human MAGED1): with no effect
effect of a mutation on the interaction (fx4l1_human FOXD4L1): with no effect
effect of a mutation on the interaction (ptn21_human PTPN21): with no effect
Substance: BAG family molecular chaperone regulator 3 (Homo sapiens), O95817 R218W

effect of a mutation on the interaction (tri27_human TRIM27): with no effect
effect of a mutation on the interaction (mdfi_human MDFI): with no effect
effect of a mutation on the interaction (ctds1_human CTDSP1): with no effect
effect of a mutation on the interaction (prr34_human PRR34): with no effect
effect of a mutation on the interaction (arrd3_human ARRDC3): with no effect
effect of a mutation on the interaction (GLIS3, Q8NEA6-2): with no effect
effect of a mutation on the interaction (hspb7_human HSPB7): with no effect
effect of a mutation on the interaction (pihd2_human PIH1D2): with no effect
effect of a mutation on the interaction (prdm6_human PRDM6): with no effect
effect of a mutation on the interaction (egr4_human EGR4): with no effect
effect of a mutation on the interaction (RUNX1, Q01196-8): with no effect
effect of a mutation on the interaction (pa2gx_human PLA2G10): with no effect
effect of a mutation on the interaction (wbp2_human WBP2): with no effect
effect of a mutation on the interaction (dazp2_human DAZAP2): with no effect
effect of a mutation on the interaction (pdli7_human PDLIM7): with no effect
effect of a mutation on the interaction (tm174_human TMEM174): with no effect
effect of a mutation on the interaction (leng8_human LENG8): with no effect
effect of a mutation on the interaction (hspb8_human HSPB8): with no effect
effect of a mutation on the interaction (dtx3_human DTX3): with no effect
effect of a mutation on the interaction (trib3_human TRIB3): with no effect
effect of a mutation on the interaction (SIAH1, Q8IUQ4-2): with no effect
effect of a mutation on the interaction (noto_human NOTO): with no effect
effect of a mutation on the interaction (EYA2, O00167-2): with no effect
effect of a mutation on the interaction (rm38_human MRPL38): disrupting interaction strength
effect of a mutation on the interaction (vp37b_human VPS37B): with no effect
effect of a mutation on the interaction (NR1H3, Q13133-3): with no effect
effect of a mutation on the interaction (magd1_human MAGED1): with no effect
effect of a mutation on the interaction (fx4l1_human FOXD4L1): with no effect
effect of a mutation on the interaction (ptn21_human PTPN21): with no effect
Substance: BAG family molecular chaperone regulator 3 (Homo sapiens), O95817 R258W

effect of a mutation on the interaction (CAMK2B, Q13554-3): with no effect
effect of a mutation on the interaction (xrcc4_human XRCC4): with no effect
effect of a mutation on the interaction (TMEM239, Q8WW34-2): with no effect
effect of a mutation on the interaction (tbcd1_human TBC1D1): with no effect
effect of a mutation on the interaction (snx2_human SNX2): with no effect
effect of a mutation on the interaction (rprm_human RPRM): with no effect
effect of a mutation on the interaction (tri37_human TRIM37): with no effect
effect of a mutation on the interaction (SYNGR1, O43759-2): with no effect
effect of a mutation on the interaction (syph_human SYP): with no effect
effect of a mutation on the interaction (ppip1_human PSTPIP1): with no effect
effect of a mutation on the interaction (thap1_human THAP1): with no effect
effect of a mutation on the interaction (cntrb_human CNTROB): with no effect
effect of a mutation on the interaction (car10_human CARD10): with no effect
effect of a mutation on the interaction (tnip1_human TNIP1): with no effect
effect of a mutation on the interaction (msd4_human MSANTD4): with no effect
effect of a mutation on the interaction (mgst2_human MGST2): with no effect
effect of a mutation on the interaction (IKZF1, Q13422-7): with no effect
effect of a mutation on the interaction (flowr_human CACFD1): with no effect
effect of a mutation on the interaction (CCDC43): with no effect
effect of a mutation on the interaction (kank2_human KANK2): with no effect
effect of a mutation on the interaction (fads6_human FADS6): with no effect
effect of a mutation on the interaction (CCDC14, Q49A88-3): with no effect
effect of a mutation on the interaction (zbt14_human ZBTB14): with no effect
effect of a mutation on the interaction (pnma5_human PNMA5): with no effect
effect of a mutation on the interaction (zn639_human ZNF639): with no effect
effect of a mutation on the interaction (sng3_human SYNGR3): with no effect
effect of a mutation on the interaction (crcm_human MCC): with no effect
effect of a mutation on the interaction (klh12_human KLHL12): with no effect
effect of a mutation on the interaction (pick1_human PICK1): with no effect
effect of a mutation on the interaction (coha1_human COL17A1): with no effect
effect of a mutation on the interaction (sft2a_human SFT2D1): with no effect
effect of a mutation on the interaction (sp4_human SP4): with no effect
effect of a mutation on the interaction (trbp2_human TARBP2): with no effect
Substance: Bifunctional polynucleotide phosphatase/kinase (Homo sapiens), Q96T60 P20S

effect of a mutation on the interaction (tri27_human TRIM27): with no effect
effect of a mutation on the interaction (cytm1_human CYSTM1): with no effect
effect of a mutation on the interaction (mdfi_human MDFI): with no effect
effect of a mutation on the interaction (ctds1_human CTDSP1): disrupting interaction strength
effect of a mutation on the interaction (prr34_human PRR34): with no effect
effect of a mutation on the interaction (arrd3_human ARRDC3): with no effect
effect of a mutation on the interaction (GLIS3, Q8NEA6-2): with no effect
effect of a mutation on the interaction (hspb7_human HSPB7): with no effect
effect of a mutation on the interaction (pihd2_human PIH1D2): with no effect
effect of a mutation on the interaction (prdm6_human PRDM6): with no effect
effect of a mutation on the interaction (egr4_human EGR4): with no effect
effect of a mutation on the interaction (RUNX1, Q01196-8): with no effect
effect of a mutation on the interaction (pa2gx_human PLA2G10): with no effect
effect of a mutation on the interaction (wbp2_human WBP2): with no effect
effect of a mutation on the interaction (dazp2_human DAZAP2): with no effect
effect of a mutation on the interaction (pdli7_human PDLIM7): with no effect
effect of a mutation on the interaction (tm174_human TMEM174): disrupting interaction strength
effect of a mutation on the interaction (leng8_human LENG8): disrupting interaction strength
effect of a mutation on the interaction (hspb8_human HSPB8): with no effect
effect of a mutation on the interaction (dtx3_human DTX3): with no effect
effect of a mutation on the interaction (trib3_human TRIB3): disrupting interaction strength
effect of a mutation on the interaction (SIAH1, Q8IUQ4-2): disrupting interaction strength
effect of a mutation on the interaction (noto_human NOTO): with no effect
effect of a mutation on the interaction (EYA2, O00167-2): with no effect
effect of a mutation on the interaction (rm38_human MRPL38): disrupting interaction strength
effect of a mutation on the interaction (vp37b_human VPS37B): with no effect
effect of a mutation on the interaction (NR1H3, Q13133-3): with no effect
effect of a mutation on the interaction (magd1_human MAGED1): with no effect
effect of a mutation on the interaction (fx4l1_human FOXD4L1): with no effect
effect of a mutation on the interaction (ptn21_human PTPN21): with no effect
Substance: BAG family molecular chaperone regulator 3 (Homo sapiens), O95817 L462P

Source: IntAct's records for PubMed 32296183
